# IntAct's records for PubMed 25910212
# B1: Tyrosine aminotransferase (Homo sapiens), P17735 (parent)
# chain: MDPYMIQMSSKGNLPSILDVHVNVGGRSSVPGKMKGRKARWSVRPSDMAKKTFNPIRAIVDNMKVKPNPNKTMISLSIGDPTVFGNLPTDPEVTQAMKDALDSGKYNGYAPSIGFLSSREEIASYYHCPEAPLEAKDVILTSGCSQAIDLCLAVLANPGQNILVPRPGFSLYKTLAESMGIEVKLYNLLPEKSWEIDLKQLEYLIDEKTACLIVNNPSNPCGSVFSKRHLQKILAVAARQCVPILADEIYGDMVFSDCKYEPLATLSTDVPILSCGGLAKRWLVPGWRLGWILIHDRRDIFGNEIRDGLVKLSQRILGPCTIVQGALKSILCRTPGEFYHNTLSFLKSNADLCYGALAAIPGLRPVRPSGAMYLMVGIEMEHFPEFENDVEFTERLVAEQSVHCLPATCFEYPNFIRVVITVPEVMMLEACSRIQEFCEQHYHCAEGSQEECDK
# B2: Fructose-bisphosphate aldolase A (Homo sapiens), P04075-2 (parent)
# chain: MARRKPEGSSFNMTHLSMAMAFSFPPVASGQLHPQLGNTQHQTELGKELATTSTMPYQYPALTPEQKKELSDIAHRIVAPGKGILAADESTGSIAKRLQSIGTENTEENRRFYRQLLLTADDRVNPCIGGVILFHETLYQKADDGRPFPQVIKSKGGVVGIKVDKGVVPLAGTNGETTTQGLDGLSERCAQYKKDGADFAKWRCVLKIGEHTPSALAIMENANVLARYASICQQNGIVPIVEPEILPDGDHDLKRCQYVTEKVLAAVYKALSDHHIYLEGTLLKPNMVTPGHACTQKFSHEEIAMATVTALRRTVPPAVTGITFLSGGQSEEEASINLNAINKCPLLKPWALTFSYGRALQASALKAWGGKKENLKAAQEEYVKRALANSLACQGKYTPSGQAGAAASESLFVSNHAY
# partner: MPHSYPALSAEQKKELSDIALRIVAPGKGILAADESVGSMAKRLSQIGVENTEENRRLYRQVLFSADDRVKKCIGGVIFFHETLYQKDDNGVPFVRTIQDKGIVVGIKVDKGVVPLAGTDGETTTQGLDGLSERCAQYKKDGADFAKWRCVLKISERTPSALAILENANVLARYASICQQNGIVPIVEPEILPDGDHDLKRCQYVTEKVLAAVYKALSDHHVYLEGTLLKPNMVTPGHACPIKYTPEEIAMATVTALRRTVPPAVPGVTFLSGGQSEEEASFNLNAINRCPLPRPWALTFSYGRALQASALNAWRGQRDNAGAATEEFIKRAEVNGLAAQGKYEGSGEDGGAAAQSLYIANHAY
# B3: Cyclin-dependent kinase 4 inhibitor C (Homo sapiens), P42773 (parent)
# chain: MAEPWGNELASAAARGDLEQLTSLLQNNVNVNAQNGFGRTALQVMKLGNPEIARRLLLRGANPDLKDRTGFAVIHDAARAGFLDTLQTLLEFQADVNIEDNEGNLPLHLAAKEGHLRVVEFLVKHTASNVGHRNHKGDTACDLARLYGRNEVVSLMQANGAGGATNLQ
# partner: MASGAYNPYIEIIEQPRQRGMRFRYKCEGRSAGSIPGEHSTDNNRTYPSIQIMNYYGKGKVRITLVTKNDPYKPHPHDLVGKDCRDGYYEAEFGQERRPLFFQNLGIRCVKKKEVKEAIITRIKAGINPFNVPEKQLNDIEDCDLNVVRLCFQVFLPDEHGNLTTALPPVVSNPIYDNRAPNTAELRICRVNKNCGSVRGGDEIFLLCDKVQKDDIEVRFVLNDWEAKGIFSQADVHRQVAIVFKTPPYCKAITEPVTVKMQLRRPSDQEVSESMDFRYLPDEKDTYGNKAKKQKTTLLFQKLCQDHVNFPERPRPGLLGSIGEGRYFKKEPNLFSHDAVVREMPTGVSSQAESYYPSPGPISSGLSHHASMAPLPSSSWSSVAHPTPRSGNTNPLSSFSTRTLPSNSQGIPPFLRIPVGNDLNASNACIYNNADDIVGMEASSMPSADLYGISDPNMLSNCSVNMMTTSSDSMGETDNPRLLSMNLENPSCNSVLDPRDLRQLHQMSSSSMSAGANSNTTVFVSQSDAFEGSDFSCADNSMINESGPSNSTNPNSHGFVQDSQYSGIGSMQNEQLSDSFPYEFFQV
# B4: U4/U6 small nuclear ribonucleoprotein Prp31 (Homo sapiens), Q8WWY3 (parent)
# chain: MSLADELLADLEEAAEEEEGGSYGEEEEEPAIEDVQEETQLDLSGDSVKTIAKLWDSKMFAEIMMKIEEYISKQAKASEVMGPVEAAPEYRVIVDANNLTVEIENELNIIHKFIRDKYSKRFPELESLVPNALDYIRTVKELGNSLDKCKNNENLQQILTNATIMVVSVTASTTQGQQLSEEELERLEEACDMALELNASKHRIYEYVESRMSFIAPNLSIIIGASTAAKIMGVAGGLTNLSKMPACNIMLLGAQRKTLSGFSSTSVLPHTGYIYHSDIVQSLPPDLRRKAARLVAAKCTLAARVDSFHESTEGKVGYELKDEIERKFDKWQEPPPVKQVKPLPAPLDGQRKKRGGRRYRKMKERLGLTEIRKQANRMSFGEIEEDAYQEDLGFSLGHLGKSGSGRVRQTQVNEATKARISKTLQRTLQKQSVVYGGKSTIRDRSSGTASSVAFTPLQGLEIVNPQAAEKKVAEANQKYFSSMAEFLKVKGEKSGLMST
# partner: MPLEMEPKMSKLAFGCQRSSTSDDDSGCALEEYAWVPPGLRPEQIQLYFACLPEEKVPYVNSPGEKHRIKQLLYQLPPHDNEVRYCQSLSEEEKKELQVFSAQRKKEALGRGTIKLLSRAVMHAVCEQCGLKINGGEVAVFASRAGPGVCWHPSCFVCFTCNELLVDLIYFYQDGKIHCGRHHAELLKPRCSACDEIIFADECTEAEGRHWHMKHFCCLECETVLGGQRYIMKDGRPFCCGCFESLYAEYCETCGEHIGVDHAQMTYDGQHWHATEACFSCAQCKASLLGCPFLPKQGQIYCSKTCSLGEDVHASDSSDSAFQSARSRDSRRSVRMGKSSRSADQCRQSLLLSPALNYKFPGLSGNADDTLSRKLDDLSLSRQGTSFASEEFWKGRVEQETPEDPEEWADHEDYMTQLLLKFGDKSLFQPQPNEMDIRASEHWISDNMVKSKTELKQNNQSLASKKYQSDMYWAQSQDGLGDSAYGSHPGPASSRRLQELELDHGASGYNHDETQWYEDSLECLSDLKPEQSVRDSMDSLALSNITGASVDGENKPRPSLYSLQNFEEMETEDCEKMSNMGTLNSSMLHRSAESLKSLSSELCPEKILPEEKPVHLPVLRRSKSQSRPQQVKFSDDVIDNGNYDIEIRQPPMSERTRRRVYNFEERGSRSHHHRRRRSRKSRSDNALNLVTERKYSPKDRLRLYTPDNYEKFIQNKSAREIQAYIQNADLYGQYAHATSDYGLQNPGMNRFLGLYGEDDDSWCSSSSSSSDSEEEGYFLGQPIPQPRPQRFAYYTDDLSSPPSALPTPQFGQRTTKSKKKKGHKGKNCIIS
# B5: Ketohexokinase (Homo sapiens), P50053-2 (parent)
# chain: MEEKQILCVGLVVLDVISLVDKYPKEDSEIRCLSQRWQRGGNASNSCTVLSLLGAPCAFMGSMAPGHVADFVLDDLRRYSVDLRYTVFQTTGSVPIATVIINEASGSRTILYYDRSLPDVSATDFEKVDLTQFKWIHIEGRNASEQVKMLQRIDAHNTRQPPEQKIRVSVEVEKPREELFQLFGYGDVVFVSKDVAKHLGFQSAEEALRGLYGRVRKGAVLVCAWAEEGADALGPDGKLLHSDAFPPPRVVDTLGAGDTFNASVIFSLSQGRSVQEALRFGCQVAGKKCGLQGFDGIV
# partner: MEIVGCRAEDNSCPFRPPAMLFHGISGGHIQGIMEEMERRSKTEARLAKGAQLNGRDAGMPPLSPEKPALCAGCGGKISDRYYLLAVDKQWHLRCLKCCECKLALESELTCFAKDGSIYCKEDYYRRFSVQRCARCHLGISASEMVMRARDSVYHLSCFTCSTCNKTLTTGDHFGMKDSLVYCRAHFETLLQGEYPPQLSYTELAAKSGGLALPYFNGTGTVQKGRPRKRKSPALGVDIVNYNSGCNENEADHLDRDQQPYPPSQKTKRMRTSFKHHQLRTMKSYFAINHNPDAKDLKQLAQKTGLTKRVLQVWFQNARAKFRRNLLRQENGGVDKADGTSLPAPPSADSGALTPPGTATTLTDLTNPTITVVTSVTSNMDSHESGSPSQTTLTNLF
# B6: EF-hand domain-containing protein 1 (Homo sapiens), Q5JVL4 (parent)
# chain: MVSNPVHGLPFLPGTSFKDSTKTAFHRSQTLSYRNGYAIVRRPTVGIGGDRLQFNQLSQAELDELASKAPVLTYGQPKQAPPADFIPAHVAFDKKVLKFDAYFQEDVPMSTEEQYRIRQVNIYYYLEDDSMSVIEPVVENSGILQGKLIKRQRLAKNDRGDHYHWKDLNRGINITIYGKTFRVVDCDQFTQVFLESQGIELNPPEKMALDPYTELRKQPLRKYVTPSDFDQLKQFLTFDKQVLRFYAIWDDTDSMYGECRTYIIHYYLMDDTVEIREVHERNDGRDPFPLLMNRQRVPKVLVENAKNFPQCVLEISDQEVLEWYTAKDFIVGKSLTILGRTFFIYDCDPFTRRYYKEKFGITDLPRIDVSKREPPPVKQELPPYNGFGLVEDSAQNCFALIPKAPKKDVIKMLVNDNKVLRYLAVLESPIPEDKDRRFVFSYFLATDMISIFEPPVRNSGIIGGKYLGRTKVVKPYSTVDNPVYYGPSDFFIGAVIEVFGHRFIILDTDEYVLKYMESNAAQYSPEALASIQNHVRKREAPAPEAESKQTEKDPGVQELEALIDTIQKQLKDHSCKDNIREAFQIYDKEASGYVDRDMFFKICESLNVPVDDSLVKELIRMCSHGEGKINYYNFVRAFSN
# partner: B3 partner
# Variants of: B1
# Conditions: with UBE3A
row,Variant,effect of a mutation on the interaction
1,P220S,disrupting interaction strength
2,R433W,disrupting interaction strength
3,R119W,with no effect
4,L273P,disrupting interaction strength

# Variants of: B1
# Conditions: with glna_human GLUL
row,Variant,effect of a mutation on the interaction
1,P220S,with no effect
2,R433W,disrupting interaction strength
3,R119W,with no effect
4,L273P,disrupting interaction strength

# Variants of: B2
# Conditions: with aldoc_human ALDOC
row,Variant,effect of a mutation on the interaction
1,D183G,with no effect
2,E261K,disrupting interaction strength
3,C393Y,with no effect

# Variants of: B3
# Conditions: with REL
row,Variant,effect of a mutation on the interaction
1,V31L,disrupting interaction strength

# Variants of: B4
# Conditions: with pric1_human PRICKLE1, Q96MT3
row,Variant,effect of a mutation on the interaction
1,L107V,with no effect

# Variants of: B5
# Conditions: with lhx9_human LHX9, Q9NQ69
row,Variant,effect of a mutation on the interaction
1,A43T,with no effect
2,G40R,with no effect

# Variants of: B6
# Conditions: with REL
row,Variant,effect of a mutation on the interaction
1,R159W,with no effect
2,A394S,disrupting interaction strength
3,T508R,disrupting interaction strength
4,M448T,with no effect
5,P77T,disrupting interaction strength
